This note sets out measurements from patent US7488592.

Data set [1] deals with T1, GST-CCaaX, P01120.
T1 chain: CCIIS

The target in data set [2] is T2, GST-Ras2(HV)CCaaX, P01120.
T2 chain: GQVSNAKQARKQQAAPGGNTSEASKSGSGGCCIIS

The target in data set [3] is T3, GST-Ras2CCaaX, P01120.
T3 chain: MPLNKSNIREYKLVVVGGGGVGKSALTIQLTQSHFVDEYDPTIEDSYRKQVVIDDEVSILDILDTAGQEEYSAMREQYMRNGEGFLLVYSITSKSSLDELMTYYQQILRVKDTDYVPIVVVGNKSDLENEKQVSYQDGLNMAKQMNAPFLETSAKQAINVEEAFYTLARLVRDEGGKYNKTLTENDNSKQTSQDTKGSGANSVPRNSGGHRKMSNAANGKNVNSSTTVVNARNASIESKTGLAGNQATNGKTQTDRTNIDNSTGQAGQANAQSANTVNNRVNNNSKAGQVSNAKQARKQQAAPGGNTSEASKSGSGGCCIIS

For data set [4], the target named is H-Ras (N-terminal His6-tagged fusion), P01112.
H-Ras (N-terminal His6-tagged fusion), P01112, sequence (P01112 whole entry, looked up, the tested form may be a part): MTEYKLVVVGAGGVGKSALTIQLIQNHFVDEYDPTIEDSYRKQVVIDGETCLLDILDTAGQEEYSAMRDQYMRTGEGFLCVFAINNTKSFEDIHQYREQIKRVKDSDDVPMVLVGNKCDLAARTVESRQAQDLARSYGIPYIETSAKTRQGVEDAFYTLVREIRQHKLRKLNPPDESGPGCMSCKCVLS
The target of data set [5] is Myristoylated Gi1.

B1: Erf2p/Erf4p complex (GST-Erf4p/FLAG-Erf2p on GSH beads) (protein)
chain 1: MALVSRRSTRSESTSITKEEHTGEGSLTKLFFRWLVTLEGDQDINDGKGYISLPNVSNYIFFLGGRFRTVKGAKPLWLGVLLAIVCPMVLFSIFEAHKLWHTQNGYKVLVIFFYYFWVITLASFIRTATSDPGVLPRNIHLSQLRNNYQIPQEYYNLITLPTHSSISKDITIKYCPSCRIWRPPRSSHCSTCNVCVMVHDHHCIWVNNCIGKRNYRFFLIFLLGAILSSVILLTNCAIHIARESGGPRDCPVAILLLCYAGLTLWYPAILFTYHIFMAGNQQTTREFLKGIGSKKNPVFHRVVKEENIYNKGSFLKNMGHLMLEPRGPSFVSARKPHEAGDWRFMDLSPAHSFEKIQKI
chain 2: MCDSHQKEEDNANTSERALFFNYHEFSYSFYEDLGSEDAKPTEHDEDHKLCITHFPNVYAARGSAEFQVTRVVRVPRRFDESRSSLETPQFSTQLPGSEPAAIVGDDGTSFVRCGRYDIGDHVFGCSSVSPLSEYLSAAELAEVVHRVNGFLLREEGEVFGWRNLSGLLLDMLTGGLWSWVLGPLLSRPVFQESLALEQYVAQLNSPGGLLHERGVRLVLPRRSGCLSLDFVVPRPK
B1: the “in vitro palmitoylation relative to GST-(HV)CCaaX” value in data set [1] is reported as “reduced 10-fold compared with GST-(HV)CCaaX”. Also, in data set [2], the “acceleration of the spontaneous rate of palmitoylation” value is reported as ~160-fold; the “palmitate incorporated into the Ras2p substrate (in vitro PAT assay, [3H]palmitoyl-CoA)” value was 0.14 pmol/min; the “palmitate transferred (PAT assay)” value was 2720 pmol palmitate transferred/min/\u00b5mol substrate. Further, the “in vitro palmitoylation (PAT assay)” value in data set [3] was “palmitoylated GST(HV)CCIIS to levels similar to full-length GST-Ras2CCIIS”. Further, in data set [4], the “palmitate transferred (PAT assay)” value was 40 vs 2720 pmol palmitate transferred/min/\u00b5mol substrate and the “palmitoylation level relative to Ras2p” value was “levels much lower (5%) than the proposed natural substrate, Ras2p”. For the same protein, in data set [5], the “palmitate transferred (PAT assay)” value was 55 vs 2720 pmol palmitate transferred/min/\u00b5mol substrate and the “palmitoylation level relative to yeast Ras2p” value was ~5% that of yeast Ras2p.
